This test concerns the target T1, N-terminally TARGET-tagged human afamin (human, UniProt P43652 22-599).
T1 construct: also called hAFM; (TARGET-tagged) afamin; not shown: N-terminal TARGET tag
T1 sequence (looked up): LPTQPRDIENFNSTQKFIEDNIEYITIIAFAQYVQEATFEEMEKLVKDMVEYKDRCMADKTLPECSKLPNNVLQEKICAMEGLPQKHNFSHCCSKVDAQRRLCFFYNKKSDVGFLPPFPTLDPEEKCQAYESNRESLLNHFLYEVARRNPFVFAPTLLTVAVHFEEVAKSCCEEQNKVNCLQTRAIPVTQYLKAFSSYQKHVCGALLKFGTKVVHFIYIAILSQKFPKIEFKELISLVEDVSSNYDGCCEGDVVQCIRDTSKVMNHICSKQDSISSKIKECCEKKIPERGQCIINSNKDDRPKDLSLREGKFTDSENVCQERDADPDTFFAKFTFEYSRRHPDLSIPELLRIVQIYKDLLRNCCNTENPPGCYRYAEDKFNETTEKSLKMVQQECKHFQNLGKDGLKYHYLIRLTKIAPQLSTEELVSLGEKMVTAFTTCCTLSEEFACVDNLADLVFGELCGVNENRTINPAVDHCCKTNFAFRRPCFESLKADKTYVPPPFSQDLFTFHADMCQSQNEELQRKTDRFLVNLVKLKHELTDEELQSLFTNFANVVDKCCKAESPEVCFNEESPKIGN
Put plainly: co-immunoprecipitation on P20.1-sepharose (TARGET tag on afamin), western blotting with biotin-modified NZ-1. As for the experimental part:
The transfected cells of each type were cultured for 90 hours in a serum-free culture medium, and the supernatants were separately harvested. To 1 mL of each supernatant, 20 μL of NZ-1-sepharose or P20.1-sepharose was added, and the mixture was rotated end over end for 1 hour. The sepharose was precipitated by centrifugation, and the supernatant was removed. After the sepharose was washed 3 times with 1 mL of TBS, 30 μL of SDS sample buffer was added, and elution was performed under heating at 95° C. for 2 minutes. The eluate was subjected to western blotting using biotin-modified NZ-1.
In general terms: Immunoblotting shows a protein as a band on a membrane.

One molecule from US20170355953A1 (OSAKA UNIVERSITY, published 2017) can be followed below.

B1: N-terminally PA-tagged human Wnt3 (ligand)
chain: GVAMPGAEDDVVGYPIWWSLALGQQYTSLGSQPLLCGSIPGLVPKQLRFCRNYIEIMPSVAEGVKLGIQECQHQFRGRRWNCTTIDDSLAIFGPVLDKATRESAFVHAIASAGVAFAVTRSCAEGTSTICGCDSHHKGPPGEGWKWGGCSEDADFGVLVSREFADARENRPDARSAMNKHNNEAGRTTILDHMHLKCKCHGLSGSCEVKTCWWAQPDFRAIGDFLKDKYDSASEMVVEKHRESRGWVETLRAKYSLFKPPTERDLVYYENSPNFCEPNPETGSFGTRDRTCNVTSHGIDGCDLLCCGRGHNTRTEKRKEKCHCIFHWCCYVSCQECIRIYDVHTCK
Take B1: the binding result is reported as “binds”.
